Measured values as given in US12466890.

Target: TL1A monomer mutant
Test: method not stated (row 'Binds monomer mutant')

Kd: 130 pM
Substance: Comparator antibody 2 (MK-7240)
